In the supplement of paper PMC9732359:
± gives the uncertainty stated by the source.

Test: protein stability index of a GFP-peptide fusion (yeast GPS) (PSI 1-4); higher = more stable; sorted into four equal gates, so the index is relative within each strain
Procedure, shortened: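 Tiled 17-residue peptides from yeast proteins were fused downstream of GFP on a plasmid that also expresses Cherry, and the pooled library was carried in yeast. Mid-log cultures grown in leucine-free medium were sorted into four equal gates by GFP/Cherry fluorescence ratio. Plasmids from each gate were PCR-amplified and Illumina-sequenced, and reads were assigned to strains by barcodes. Each peptide's protein stability index is the sum, over gates, of the gate's read frequency multiplied by its gate number.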

| Sequence | protein stability index (doa10∆) | protein stability index (pdr5∆) | protein stability index (san1∆) | protein stability index (ubr1∆) |
| --- | --- | --- | --- | --- |
| FVKGISRDIKALQDSLF [YML103C/NUP188] | 2.25 ± 0.071 | 2.18 ± 0.058 | 1.97 ± 0.096 | 1.7 ± 0.043 |
| SPGSPAYSPKQDEQKHN [RPO21] | 3.11 ± 0.15 | 3.15 ± 0.11 | 3.2 ± 0.11 | 3.27 ± 0.11 |
| KDMKLLRYYKNIWLNNK [NUT1] | 2.01 ± 0.065 | 1.65 ± 0.074 | 1.97 ± 0.15 | 1.28 ± 0.054 |
| TFVERLPNETINDRNDR [DIS3] |  |  |  | 2.28 ± 0.11 |
| IINKVLDYQETYVEELF [YJL039C/NUP192] | 2.2 ± 0.1 | 2.87 ± 0.15 | 2.76 ± 0.12 | 2.6 ± 0.075 |
| ILDIVINNPVNLTIHFG [FAS1] | 2.06 ± 0.088 | 2.4 ± 0.078 | 2.5 ± 0.097 | 3.02 ± 0.075 |
| FNVDDVLKFTFTGEKPI [MED8] | 3.16 ± 0.094 | 3.02 ± 0.097 | 3.29 ± 0.048 | 2.98 ± 0.068 |
| FIANEGVHTGQFIYAGK [RPL2A] | 2.98 ± 0.22 | 2.44 ± 0.17 | 2.04 ± 0.27 |  |
| LQQICRVRNKDIRKFLD [RPL9A] | 2.13 ± 0.074 | 2.2 ± 0.074 | 2.04 ± 0.1 | 2.31 ± 0.054 |
| DEKVTILVDSLTGNQLP [SWI1] | 2.76 ± 0.057 | 2.72 ± 0.064 | 2.9 ± 0.04 | 2.95 ± 0.046 |
| YDEVKKHWGGGILGNKA [RPL8A] | 3.16 ± 0.11 | 3.4 ± 0.089 | 3.44 ± 0.06 | 3.23 ± 0.061 |
| KDVKARIAAGDGDDDDE [QCR9] | 1.83 ± 0.13 | 2.29 ± 0.19 | 2.12 ± 0.074 | 2.24 ± 0.12 |
| TMTYEEVAKRLVELMFI [FAS1] | 1.79 ± 0.067 | 2.22 ± 0.071 | 2.52 ± 0.084 | 2.14 ± 0.069 |
| SKRLPLRFPEHTSSGSV [BRR2] | 2.9 ± 0.096 | 2.97 ± 0.083 | 2.74 ± 0.14 | 2.34 ± 0.065 |
| NDRKQTTVSNDLENSPL [SSN2] | 2.98 ± 0.079 | 3.11 ± 0.056 | 3.13 ± 0.041 | 3.08 ± 0.038 |
| QSTQTDLEKTERIVVSY [SMC2] | 2.98 ± 0.052 | 2.94 ± 0.065 | 2.56 ± 0.058 | 2.69 ± 0.044 |
| LDPLEMEGNAQPVNFNR [RPO31] | 3.37 ± 0.09 | 3.29 ± 0.081 | 2.93 ± 0.1 | 2.97 ± 0.1 |
| SIRSRRPYQVNVLIGGY [PRE1] | 2.34 ± 0.17 | 2.88 ± 0.09 | 1.71 ± 0.19 | 3.04 ± 0.1 |
| LEVGRRFSPDEDFEHNN [MCD1] | 3.26 ± 0.15 | 3.45 ± 0.18 | 3.22 ± 0.16 | 3.45 ± 0.18 |
| YSPTSPSYSPTSPSYSP [RPO21] | 2.756 ± 0.027 | 2.976 ± 0.026 | 2.87 ± 0.024 | 2.868 ± 0.02 |
| ARERKTATYNDNMSEEQ [SNF2] | 3.13 ± 0.11 | 2.91 ± 0.11 | 3.46 ± 0.11 | 3.22 ± 0.085 |
| KSLESQRYVKSVKSVKF [RPC34] | 1.26 ± 0.081 | 1.61 ± 0.058 | 2.16 ± 0.098 | 1.55 ± 0.084 |

| Sequence | protein stability index (doa10∆) | protein stability index (pdr5∆) | protein stability index (san1∆) | protein stability index (ubr1∆) |
| --- | --- | --- | --- | --- |
| DKNSGVKSEVDVQVDAE [ITC1] | 2.1 ± 0.064 | 2.15 ± 0.073 | 1.79 ± 0.12 | 2.97 ± 0.065 |
| YQVDEDVKSSLSKVFSD [YJL039C/NUP192] | 3.23 ± 0.17 | 3.42 ± 0.14 | 3.33 ± 0.17 | 2.93 ± 0.22 |
| ATPPLKRFKDMEYLSGG [SMC1] | 2.93 ± 0.13 | 2.89 ± 0.09 | 2.99 ± 0.047 | 3.01 ± 0.063 |
| RQQKLLLETKLRQQYEI [SWI1] | 3.06 ± 0.11 | 2.93 ± 0.1 | 3.17 ± 0.068 | 2.91 ± 0.11 |
| KKKRSRTSATREDTPLS [ISW2] | 3.51 ± 0.16 | 3.37 ± 0.083 | 3.45 ± 0.058 | 3.22 ± 0.13 |
| LVSDSEIIDLNLHSFTK [POP6] | 2.62 ± 0.072 | 2.81 ± 0.069 | 2.31 ± 0.07 | 2.71 ± 0.048 |
| AEENLKKRIRLPSEERI [YIL149C/MLP2] | 2.89 ± 0.081 | 2.48 ± 0.066 | 2.61 ± 0.08 | 3.08 ± 0.044 |
| QDKSKKIMNVTTDSLTK [YMR129W/POM152] | 3.25 ± 0.064 | 2.97 ± 0.06 | 3.1 ± 0.034 | 3.21 ± 0.044 |
| MDAYSTRPLTLSHGSLE [FAS1] | 3.18 ± 0.11 | 3.15 ± 0.1 | 3.05 ± 0.093 | 3.3 ± 0.087 |
| DIPFFPSSEKPNIRTMS [SSN2] |  |  | 3.1 ± 0.22 |  |
| AQGLLHLGKGTMTMDVF [RPN1] | 2.47 ± 0.065 | 2.61 ± 0.066 | 2.15 ± 0.081 | 1.89 ± 0.058 |
| LRRASATVPSAPYRKQI [YAR002W/NUP60] | 2.72 ± 0.095 | 2.93 ± 0.11 | 2.07 ± 0.13 | 2.64 ± 0.068 |
| KKKQQGAKQTQGGAMNK [SRP72] | 2.07 ± 0.12 | 2.54 ± 0.1 | 3.37 ± 0.082 | 3.58 ± 0.062 |
| VSKEGLYQLVDIRDSSC [YMR129W/POM152] | 2.83 ± 0.099 | 2.92 ± 0.084 | 2.7 ± 0.06 | 2.84 ± 0.05 |
| QYSLERNSPFWWTNSHH [PRP8] | 2.56 ± 0.078 | 2.79 ± 0.065 | 2.4 ± 0.057 | 2.69 ± 0.052 |
| LLFINSSKLVDVYTLPS [YML103C/NUP188] | 1.97 ± 0.043 | 2 ± 0.05 | 1.98 ± 0.055 | 2.01 ± 0.054 |
| SPPPQTHQSPPPPPQQS [SNF5] | 2.87 ± 0.034 | 2.72 ± 0.029 | 2.75 ± 0.032 | 2.74 ± 0.03 |
| EIGGSDLKESMVKGLLK [ECM29] | 2.63 ± 0.23 | 3.53 ± 0.16 |  | 2.76 ± 0.21 |
| VVSTDLESIQKTKEAVA [RPL4A] | 2.95 ± 0.072 | 3.12 ± 0.083 | 2.9 ± 0.08 | 2.82 ± 0.063 |
| DLSSAASASGAAGAGAA [FAS2] | 1.78 ± 0.13 | 1.51 ± 0.11 |  | 1.66 ± 0.19 |
| TYASVTGLFTLERTDLK [RPN7] | 3.43 ± 0.23 |  |  | 2.62 ± 0.21 |
